Reference: patent US6436901B1, “Pharmaceutical compositions” (UCP Gen-Pharma AG, priority 1994, dated 2002)

Experiment: RP-HPLC of hirudin in water (FIG. 1)
Format: physicochemical
Method: RP-HPLC method: A LiChroCART 125-4 column is used (Merck LiChrospher 100 RP-18 5 μm). Solvent A is 0.5% ammoniumacetate in acetonitrile/water (10:90), (v:v); solvent B is 0.5% ammoniumacetate in acetonitrile/water (25:75). The elution is performed at 45° C. using a flow rate of 0.5 ml/min. The binary elution is a linear gradient starting at time zero with 23% solvent B and reaching 46% solvent B after 24 minutes. After 2 min at 70% solvent B the column is equilibrated for 7 min at 23% solvent B.
A typical chromatogram of recombinant hirudin HV1 (CGP 39393) in water using the RP-HPLC (1 mg/ml hirudin) method is shown in FIG. 1.
In FIG. 1 the relative area of the main peak is 95.15%. […] The changes which occur can be accelerated by using temperature stress experiments i.e. by storage at elevated temperatures.

hirudin
relative area of the main peak (in water, 1 mg/ml hirudin, typical chromatogram FIG. 1, no storage stress): 95.15%
stability on storage in water (storage in water at room temperature): increase of by products with time
